Values of other authors in paper PMC11893814.

Biological target: wild-type microtubule GTP cap (Homo sapiens) (UniProt P68363)
UniProt P68363, sequence (P68363 whole entry, chain 1 of 2): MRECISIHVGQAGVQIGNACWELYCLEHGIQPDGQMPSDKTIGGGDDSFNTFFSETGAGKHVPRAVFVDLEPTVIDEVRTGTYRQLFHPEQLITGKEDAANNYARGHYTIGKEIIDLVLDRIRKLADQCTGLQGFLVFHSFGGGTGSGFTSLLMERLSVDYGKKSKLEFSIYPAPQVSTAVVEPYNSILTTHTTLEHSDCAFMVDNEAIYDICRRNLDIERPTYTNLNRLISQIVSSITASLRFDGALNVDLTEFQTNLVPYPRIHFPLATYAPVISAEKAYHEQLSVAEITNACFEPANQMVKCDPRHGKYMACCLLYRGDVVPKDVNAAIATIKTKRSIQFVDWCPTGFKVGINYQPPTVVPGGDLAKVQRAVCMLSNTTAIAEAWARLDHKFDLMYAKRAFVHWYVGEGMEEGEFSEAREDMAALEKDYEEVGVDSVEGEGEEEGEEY
UniProt P68363, sequence (A8K854 whole entry, chain 2 of 2, further chain): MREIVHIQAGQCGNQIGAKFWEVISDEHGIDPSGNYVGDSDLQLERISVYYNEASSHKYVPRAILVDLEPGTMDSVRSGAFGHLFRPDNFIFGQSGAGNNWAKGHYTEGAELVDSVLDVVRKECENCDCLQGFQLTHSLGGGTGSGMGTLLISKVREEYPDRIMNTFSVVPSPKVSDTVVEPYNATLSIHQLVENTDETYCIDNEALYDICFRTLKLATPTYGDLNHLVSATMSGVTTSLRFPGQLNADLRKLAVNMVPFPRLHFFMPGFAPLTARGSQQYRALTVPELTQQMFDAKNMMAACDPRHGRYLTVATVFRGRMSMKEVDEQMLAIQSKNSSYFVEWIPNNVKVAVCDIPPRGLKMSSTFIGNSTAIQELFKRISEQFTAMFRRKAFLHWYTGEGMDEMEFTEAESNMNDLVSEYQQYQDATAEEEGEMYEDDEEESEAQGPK

EB3 (from UniProt Q9UPY8)
Kd: 39.6 nM
